# B1: TPR t1 (parent)
# chain: GACCAAUCUGCCCUCAGAGCUCGAGAACAUCUUCGGAUGCAGAGGAGGCAGGCUUCGGUGGCGCGAUAGCGCCAACGUCCUCAACCUCCAAUGCAUCCCACCACAUGAUGAUGCCUGAAGAGCCUUGGUUUUUUG
# Variants of: B1
# Assay: polymerase ribozyme fitness, log enrichment relative to wild type (log ratio); higher = more active; in vitro selection for triplet polymerase activity
# Summary of the method: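 Only genotypes with ≥10 input reads and ≥1 read per output were kept after Illumina sequencing of input and output libraries. These libraries were PCR-built, transcribed mutants of each subunit of a heterodimeric triplet polymerase ribozyme, each put through one triplicate in vitro selection round with frozen incubation at −7 °C, gel excision of extended constructs, streptavidin-bead capture and RT-PCR. Fitness is a logarithmic ratio of genotype enrichment to wild-type enrichment, from inverse-variance-weighted replicate averages, with the logarithm in base 2.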
row,Variant,polymerase ribozyme fitness (log ratio)
1,A6U C13G C56U G77C,-1.6
2,A6U C15A G51C G71U C124U,-5.41
3,A6U C76G,-0.287
4,A6C G44A G61U,-0.646
5,A6C G10A U30C G71A,-5.5
6,A6C C15G U55G C94G C124G G127A,-3.17
7,A6C C53G,-0.863
8,A6G C49U G60C G135U,-2.21
9,U7C C8A A27C C97U,-2.64
10,U7A A37U U78A,0.116
11,A5U G127U,-2.48
12,A6C U9A C15G G45A C104A C124G,-3.65
13,A6U U9G G63A C104U C115U G117U,-3.69
14,A6G C76A C79A G120C,0.0381
15,A6G G48C C72A,0.333
16,A6C C11U C49A C101A,-2.17
17,A6U C13A C22G A75U,-4.17
18,A6G C62A,-0.491
19,A6U A18G C20U C73G U125A,-2.1
20,A6U A16C C40U C70U C85G,-5.17
21,U7A C34A C97U,-1.97
22,A6C U78C A100U G120A U131C,-0.187
23,A6C G35U A83U C98G A121U,-4.12
24,A6U G51U C70U C80U G93U,-5.12

row,Variant,polymerase ribozyme fitness (log ratio)
1,U7A C53U C73U C86U A90G G122A,-2.05
2,A6G C8A,-0.14
3,A6G G71C A118U,-0.254
4,A6G C8G U30C A41G G60U,-3.67
5,A6C A37C A111U,-3.49
6,A6G C101A C115G,-1.96
7,A5U U7A C40G U55G C56U G60A U130C,-1.94
8,A6C G17U U96G C98U C123U,-6.92
9,A6U C8G C34U C53U C82U A84C,-4.3
10,A6G C12A A50G G120A,2.01
11,A6C U54G C62U U92G,-4.44
12,U7A G63A C89U,-1.1
13,A6U C88U G128A,-2.51
14,U7C A50U C82U,-0.98
15,A6G G10U A43C G71A,-4.79
16,A6C C22U C62U C79U C99U,-5.96
17,U7A C104G,-6.47
18,A6C C62G,-2.28
19,A6U A29U G61A C115G G117U,-4.58
20,A6G A50C C70G,-3
21,A6C G71A G93C C99U C123A U130A,-7.12
22,A6U G17C U130A,-4.89
23,A6U G19A,-2.37
24,A6U A37U U112A U130A,0.657

row,Variant,polymerase ribozyme fitness (log ratio)
1,A6G A46C C49A C53A U55C G127U,-3.07
2,U7A U9C,0.526
3,A6G C62U U129C,-0.185
4,A6C C53G G69U,0.253
5,A6G U7G A18C G52U U81A C115G,-4.51
6,A6U G44A C73U C86G,-3.18
7,A6G G61C C79A U112G C114U,-6.62
8,A6U C40A C56G A84G C104U,-2.66
9,U7A C20G U78C,-4.76
10,A6U G44A G63C G113U,-5.44
11,A6U C12U C72U A83C G127U,-0.0511
12,A6G G10A C11U G61A A100U G128A,-2.69
13,A6G C34A,-2.05
14,A6U C12U C80U,-0.107
15,A6U C40A G60U A105C,-4.4
16,A6U G42U G51A,-5.8
17,A6C A41C C94A U129G,-4.39
18,A6C U9A C15G G45A C62U C104A C124G,-3.99
19,A6U C72A,0.375
20,A6C G52A U81C A121C C123A,-0.955
21,U7A C8G A43C C53A G69U,-0.446
22,A6U G58C G63U C64A A119U,-6.07
23,A6U C40U C123A,0.808
24,A5U U54C G69A U112C,-0.469

row,Variant,polymerase ribozyme fitness (log ratio)
1,U7A U32C,0.304
2,U7A C12A A90G,-0.303
3,A6C G113A,-1.23
4,U7A C53U C70U,-0.899
5,A5U G47A C101U,-1.94
6,U7A A74G,-0.408
7,A6U G25A C56A C73A C79G C94U G113U C124A,-8.13
8,A6C C76G U81C C85U C99U,-5.11
9,A6G C8A U55A,0.109
10,A6G A18G U129A U133A G135U,-5.44
11,A6U G10C C12A U87A,-0.928
12,A6G G113A,-0.703
13,U7A C70U C115A,0.524
14,U7A A43U,-1.13
15,A6C A16U C70U C104A,-4.73
16,A6C G47A C123U U125A,-0.223
17,A6U C73G,-1.46
18,U7C C11A G45C G58A,-0.0271
19,A6G U21C G61C C114A,-3.62
20,A6U G39A A74C A91U,-2.33
21,U7C A43U G52A C53U C85A U87A,-4.57
22,A6G C97U U112A,1.48
23,A6U C98U U112G,-3.5
24,A6G G47U G71A,-2.24

row,Variant,polymerase ribozyme fitness (log ratio)
1,A6U U92G,-2.92
2,A6C G36A A66G C72G C76U U78A,-4.1
3,A5U G51U,-3.03
4,U7A C123G,2.34
5,U7C A24U G61U,-7.38
6,A6C C53G G57A C73A C79G G113C,-4.89
7,A6G G63U C73G C102A G110U C115G,-6.75
8,A6G G19A A43U C123A G128A,-5.55
9,A6U C8U G48U,-0.267
10,A6C G10C G36U,-2.24
11,U7A G36U G61U C124G,0.266
12,A5U U38G A74G,-1.15
13,A6U A16U C40G C56A,-3.22
14,A6G C11U A29G G52A C76A C85A U125G,-5.55
15,A6U G113U,-2.09
16,A6G C11G G57U,0.178
17,A6U A18U G93C C102U,-6.29
18,U7A C13G U32C U38G,-1.31
19,A6U G23U,-4.65
20,A6G A121C,2.2
21,A6U G17U U112A G120A,-3.9
22,A6U A18U C28U C70A C123G,-6.38
23,A6U G10U C13G C40U A41C G63U U78C C79A A121G,-4.13
24,A6U C22A C49U C72U,-5.16

row,Variant,polymerase ribozyme fitness (log ratio)
1,U7A G10C G57U C88G,-2.78
2,A6C G47A C86U U133G,-0.584
3,A6U A24G A37U A43C A66U,-5.69
4,A6C C82U,-0.547
5,U7A C12G C89G A111C,-2.35
6,A6G G48U G52C C73G,-3.58
7,U7A A66U C98U,-1.89
8,A6U G61A C79G,-1.4
9,A6C C73G G93U G128U,-5.16
10,A6U C12A G61A U78A C80U C86A G120A,-2.58
11,U7A G60U,0.564
12,A6U G17C,-4.25
13,U7A U9C G45C C70U C89A C123A,-2.15
14,U7C A66C G77C C88A,-2.34
15,A6G A37U C72A C73U G117U C124A,-0.937
16,U7A G52A A111C,0.419
17,U7A G69U C98U,-0.115
18,A6U C11G,0.392
19,A6U U9C U55C A75G A95C G110A,-1.37
20,A6U G10U C12U C15G C72G C86A,-3.18
21,A6C C12A U54G,-1.08
22,U7A G60U C104A U125A,-1.13
23,A6U A27U A46C G48A C53G C79G C82G G110C,-6.9
24,A6C A100U,-0.814

row,Variant,polymerase ribozyme fitness (log ratio)
1,A6U G61U,-0.0436
2,A6G C8A U9G,0.0967
3,U7A C64A,-4.63
4,A5U G69C,-2.22
5,A6C C11U G69A A91C,-6.12
6,A6U C28G C72U C102U A103C,-7.04
7,A6G C13U C102U G122A,-2.62
8,A6U A26G C79U,-2.88
9,U7A G10C A90U C101A,-4.34
10,A6C A18C G60U C82G G127U,-5.44
11,A6U G47A C70U C94U,-1.74
12,A5U G47U,-1.29
13,A6G C11U,-0.107
14,A5U U130G,-0.49
15,A6U C8G C73G C88A U92G C98A G113U,-6.38
16,A6U C11A C62G G120A,-2.04
17,A6U G17U C40U C76G,-3.15
18,A6U U9G G63C C104U C115U G117U,-1.31
19,A6C G77A,-0.571
20,A6C U9G,-0.665
21,A6U G71U C82G,-0.9
22,A6C U7G C22G G58U A95G C104A G120C,-3.33
23,A6U C102A G128A,-4.03
